Target: T1, TON_0321 (CAS-Cas4) (Thermococcus onnurineus NA1, UniProt B6YTB9 1-222)
T1 sequence: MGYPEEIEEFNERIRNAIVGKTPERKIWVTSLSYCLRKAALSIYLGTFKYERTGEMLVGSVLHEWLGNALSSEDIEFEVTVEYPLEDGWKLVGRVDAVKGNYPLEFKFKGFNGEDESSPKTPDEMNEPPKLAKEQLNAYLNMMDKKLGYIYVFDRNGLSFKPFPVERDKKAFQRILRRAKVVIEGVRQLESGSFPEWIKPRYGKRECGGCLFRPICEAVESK
Assay: fluorescence anisotropy; 20 mM ZnSO4; 20 mM Tris-HCl pH 8.0, 100 mM NaCl, 0.5 mM DTT, 0.1 mg/ml BSA, 20 mM ZnSO4, 25 °C; 35 nM DNA (25 nM labeled), 0-1600 nM protein
Conditions: protein: recombinant; tags: N-terminal 6xHis (pET28a); label: 5' 6-FAM; single strand

Binder: ATTCTACCAGTGCCTTGCTAGGACATCTTTGCCCACCTGC (ssDNA) [ssDNA (Y0-1F)]
- binding result: binds
